Molecular target: the molecule itself
Experiment: SDS-PAGE and immunoblot without cross-linker (SDS-resistant dimer); same membrane fraction of COS-7 cells transfected with HA-Arl6IP5, without BS3; anti-HA immunoblot

B1: HA-tagged Arl6IP5 (ADP ribosylation factor-like GTPase 6-interacting protein 5) (natural protein, human, UniProt O75915 1-188, looked up)
chain: MDVNIAPLRAWDDFFPGSDRFARPDFRDISKWNNRVVSNLLYYQTNYLVVAAMMISIVGFLSPFNMILGGIVVVLVFTGFVWAAHNKDVLRRMKKRYPTTFVMVVMLASYFLISMFGGVMVFVFGITFPLLLMFIHASLRLRNLKNKLENKMEGIGLKRTPMGIVLDALEQQEEGINRLTDYISKVKE
notes: Arl6IP5, human, cDNA in pCMV vector with N-terminal HA tag; ER membrane protein; tested in the membrane fraction, not solubilised; also called HA-Arl6IP5; PRAF3; source: COS-7, transfected (PEI), crude membrane fraction; not shown: HA, N-terminal, kept
stoichiometry N: 2

— paper PMC12136792, “ADP ribosylation factor–like GTPase 6–interacting protein 5 (Arl6IP5) is an ER membrane-shaping protein that modulates ER-phagy” (The Journal of Biological Chemistry, 2025)
